The source of these data is PMC4108320, “Two Structurally Different Dienelactone Hydrolases (TfdEI and TfdEII) from Cupriavidus necator JMP134 Plasmid pJP4 Catalyse Cis- and Trans-Dienelactones with Similar Efficiency” (PLoS ONE, 2014).

Substrate in the data set: O=C(O)/C=C1/C=CC(=O)O1
The data set is described as follows: purified protein. The data set is classed as biochemical, Cupriavidus pinatubonensis. To be noted: Tris-Cl pH 7.0, 37 °C, 0.5 µM enzyme, 1-1000 µM substrate.

B1: TfdEI (Cupriavidus pinatubonensis JMP134) (protein)
chain: MLSDGVEITSRSGGRFGAYLGKPTTDSAPIVVIAQEIFGITPFIRETVEWLVGAGFGCVCPDLYWRQAPNIELDANVPSEREQALALFRDFDMEAGVNDLSCAIEYARALPFSNGRVAVVGYCLGGALAFDVAARSLADCSIGYYGVGLEKKVSLVPAITRPAMFHMGTKDHYVTEEARSILEEHFGRNKNLSLHWYPVGHSFARSSSPNFDQAATTVANARTLELLAMLKDPS
notes: full-length tfdEI ORF (705 bp, 234 aa) in pET21b BamHI/HindIII; stop codon in reverse primer; E. coli BL21(DE3); about 25 kDa, monomeric
As to B1, the Km turned out to be 84 µM and the Vmax came out at 9.09 µM/min.

B2: TfdEII (Cupriavidus pinatubonensis JMP134) (protein)
chain: MCHDTAPALFPRTASTGSIDGAICALCYAGATRGPRLLVLPDIYGCNAFYRGYAAYLAEQGAGEVLLVDPFAAFGELATVTREAAFQRRHRLADRAYVEELIDFIDGQRIEGVVGFCLGGLFVFELARQQVVSRLVAYYPFPQGLENRDPLDVPFDYLPALRSRHTVIVGDDDALLGTQNLQRLQAQARANDAIDLHIMNGAGHGFLADLESPDTARAAVAKRGLRIGTTTLLGG
notes: full-length tfdEII ORF (708 bp, 235 aa) in pET21b BamHI/HindIII; stop codon in reverse primer; E. coli BL21(DE3); about 25 kDa, monomeric
For the protein B2, the Km is reported as 178 µM and the Vmax was found to be 8.38 µM/min.

As a reminder, the Km is the concentration of substrate that gives half-maximal velocity. By Vmax is commonly meant the rate approached at saturating substrate.
